This experiment has as its target TbRIF5-BB2-HA (T. brucei). As to the kind of experiment: co-IP; cytoplasmic extracts of cells expressing TbDCL1-BB2-FLAG and TbRIF5-BB2-HA; immunoprecipitation with anti-FLAG or anti-HA antibody; Western blot for the common BB2 epitope. Background: In western blotting, separated proteins are transferred to a membrane and probed.

Turning to TbDCL1-BB2-FLAG (enzyme), the percent of TbDCL1 in the precipitate was 50%.

(Values after publication PMC3359990.)
